Measured values from article PMC2852419, “Identification of SOX9 Interaction Sites in the Genome of Chondrocytes”.

Molecular target: SOX9 (Homo sapiens, UniProt P48436 1-509)
Test: EMSA; EMSA with recombinant human SOX9 and 32P probes as in cited ref 67; buffer, salt, pH and temperature not given
Conditions: protein: recombinant; chain copies: 2; label: 32P-dCTP Klenow fill-in

SOX9, sequence (P48436 whole entry): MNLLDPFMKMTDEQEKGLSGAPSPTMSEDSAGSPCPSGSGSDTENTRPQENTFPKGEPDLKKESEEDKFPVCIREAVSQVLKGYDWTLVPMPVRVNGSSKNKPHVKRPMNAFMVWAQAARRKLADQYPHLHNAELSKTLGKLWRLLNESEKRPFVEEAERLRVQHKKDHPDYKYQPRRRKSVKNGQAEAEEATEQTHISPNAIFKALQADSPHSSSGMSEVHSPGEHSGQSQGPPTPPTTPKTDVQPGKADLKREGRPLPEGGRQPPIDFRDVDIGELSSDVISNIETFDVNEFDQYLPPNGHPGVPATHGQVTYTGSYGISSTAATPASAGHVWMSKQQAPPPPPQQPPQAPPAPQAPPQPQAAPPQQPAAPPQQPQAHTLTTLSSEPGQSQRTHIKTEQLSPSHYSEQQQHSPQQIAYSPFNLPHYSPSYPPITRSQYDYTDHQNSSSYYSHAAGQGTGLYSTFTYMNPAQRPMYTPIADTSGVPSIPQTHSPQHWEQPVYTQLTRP

Binder | binding result
Col2a1 intron 6 (human) (dsDNA) DNA 1: GGCAGGTAACTGAGGACTTTCTTTATAGAATCCCAG DNA 2: CTGGGATTCTATAAAGAAAGTCCTCAGTTACCTGCC | binds
Col2a1 intron 6 mutant (dsDNA) DNA 1: GGCAGATAGCTGTTTTCCTTTTCGACAGAAACCCAG DNA 2: CTGGGTTTCTGTCGAAAAGGAAAACAGCTATCTGCC | no binding
